Results reported in US20260347469 (published 2026).

Target: 4-1BB-Fc (human, UniProt Q07011)
Assay: BLI, 24C, avidity

Chain of 4-1BB-Fc (Q07011 24-186): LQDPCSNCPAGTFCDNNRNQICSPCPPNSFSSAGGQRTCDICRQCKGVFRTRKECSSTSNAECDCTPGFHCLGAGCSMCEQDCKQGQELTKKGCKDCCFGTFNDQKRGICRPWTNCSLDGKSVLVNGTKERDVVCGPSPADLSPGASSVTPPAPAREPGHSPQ

Kd: 0.02 nM
B1: D2 (4-1BBL trimer-Fc) (protein)
chain: KEITNALETWGALGQDINLDIPSFQMSDDIDDIKWEKTSDKKKIAQFRKEKETFKEKDTYKLFKNGTLKIKHLKTDDQDIYKVSIYDTKGKNVLEKIFDLKIQERVSKPKISWTCINTTLTCEVMNGTDPELNLYQDGKHLKLSQRVITHKWTTSLSAKFKCTAGNKVSKESSVEPVSCPEKGLDIYLIIGICGGGSLLMVFVALLVFYITKRKKQRSRRNDEELETRAHRVATEERGRKPHQIPASTPQNPATSQHPPPPPGHRSQAPSHRPPPPGHRVQHQPQKRPPAPSGTQVHQQKGPPLPRPRVQPKPPHGAAENSLSPSSN
